Test results: patent publication US20250302875A1 (AVENCELL EUROPE, published 2025)
Where a chain is given by its changes, count along the chain named. Names and notes keep the numbering of the source. Each block holds one binder with its values, some of them ahead of it.

Assays:
[1] = biological target: T1, IL13Rα2 on cells (recombinant K562-IL13Rα2 cell line, U251-MG cells, PC3 cells) (human, UniProt Q14627 27-380); test: cell-based or functional assay
T1 sequence (looked up): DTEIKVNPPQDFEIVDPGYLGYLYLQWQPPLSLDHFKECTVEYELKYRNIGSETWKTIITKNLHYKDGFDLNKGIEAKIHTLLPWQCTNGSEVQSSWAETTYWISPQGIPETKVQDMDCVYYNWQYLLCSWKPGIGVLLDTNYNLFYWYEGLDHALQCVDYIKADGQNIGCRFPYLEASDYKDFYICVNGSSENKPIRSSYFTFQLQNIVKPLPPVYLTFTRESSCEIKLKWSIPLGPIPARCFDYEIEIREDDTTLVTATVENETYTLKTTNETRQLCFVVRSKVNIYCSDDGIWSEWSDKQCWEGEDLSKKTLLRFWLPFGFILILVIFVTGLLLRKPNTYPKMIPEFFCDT

[2] = biological target: T2, IL13Rα1 on recombinant K562-IL13Rα1 cell line (UniProt P78552 22-427); test: flow cytometry cellular binding assay on recombinant K562-IL13Rα1 cells, two-step immunostaining, MFI against TM concentration
T2 construct: whole, on cells
T2 sequence (looked up): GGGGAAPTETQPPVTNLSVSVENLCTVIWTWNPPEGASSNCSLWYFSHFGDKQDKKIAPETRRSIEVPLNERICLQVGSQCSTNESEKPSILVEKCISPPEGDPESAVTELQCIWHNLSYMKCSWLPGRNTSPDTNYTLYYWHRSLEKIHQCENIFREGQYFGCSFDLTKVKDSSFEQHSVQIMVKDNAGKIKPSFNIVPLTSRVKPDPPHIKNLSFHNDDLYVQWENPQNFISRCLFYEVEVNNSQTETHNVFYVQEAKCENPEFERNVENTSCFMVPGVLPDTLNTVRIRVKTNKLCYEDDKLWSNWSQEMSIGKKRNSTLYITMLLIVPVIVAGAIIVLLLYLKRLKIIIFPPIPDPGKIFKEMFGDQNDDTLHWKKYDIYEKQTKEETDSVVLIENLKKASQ
Experimental: (§1) Cellular binding of IL13-based targeting modules (TM) was tested on recombinant K562-IL13Rα2 cell line (FIG. 2A), recombinant K562-IL13Rα1 cell line (FIG. 2B) and U251-MG cells (FIG. 2C) (derived from a malignant glioblastoma tumor by explant technique). The affinity of TMs was analyzed by FACS in a two-step immunostaining. The TMs were titrated on an AML cell line with recombinant overexpression of IL13Rα2 or IL13Rα1 or U251-MG cells, respectively, and then detected by a mouse anti-His-tag antibody conjugated to phycoerythrin. A dose-response curve was obtained when the geometric mean fluorescence (MFI) was plotted against the TM concentration.
(§2) The data were fitted using a four-parameter model with a variable slope for sigmoidal curves. The EC50 value obtained from this model can be interpreted as a representative value of the TM affinity for the cells overexpressing the target receptor.

[3] = biological target: T1, IL13Rα2 on cells (recombinant …); test: flow cytometry, two-step immunostaining, K562-IL13Rα2 cells
Experimental: as §1, §2

[4] = biological target: T3, soluble recombinant IL13Rα2 ectodomain (human, UniProt Q14627 27-343); test: SPR, Biacore X100, two-state reaction model, Kd1
T3 construct: extracellular domain
T3 sequence (looked up): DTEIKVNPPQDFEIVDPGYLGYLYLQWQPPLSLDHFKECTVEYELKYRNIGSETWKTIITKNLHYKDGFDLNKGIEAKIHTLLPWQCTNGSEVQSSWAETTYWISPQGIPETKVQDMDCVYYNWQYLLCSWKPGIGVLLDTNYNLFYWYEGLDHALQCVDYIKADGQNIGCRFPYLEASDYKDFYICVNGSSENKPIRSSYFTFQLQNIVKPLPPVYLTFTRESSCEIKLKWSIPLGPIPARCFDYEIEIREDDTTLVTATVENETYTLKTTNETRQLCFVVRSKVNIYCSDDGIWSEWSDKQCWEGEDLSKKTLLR
Experimental: (§3) Data obtained by surface plasmon resonance were fitted with a “two-state reaction” model using the Biacore X100 Evaluation Software (V2.0.1). The following parameters were calculated from this model: association rate (kₐ), dissociation rate (kd) and the dissociation constant at equilibrium (KD).

[5] = biological target: T1, IL13Rα2 on cells (recombinant …); test: cell-based or functional assay; remark: listed apart in the source
[6] = biological target: T1, IL13Rα2 on cells (recombinant …); test: flow cytometry, two-step immunostaining, PC3 cells
[7] = biological target: T3, soluble recombinant IL13Rα2 ectodomain; test: SPR, Biacore X100, two-state reaction model, Ka1
Experimental: as §3

[8] = biological target: T1, IL13Rα2 on cells (recombinant …); test: flow cytometry cellular binding, U251-MG cells, mean
Experimental: as §2
The mean values were calculated from the results obtained from two independent experiments with three technical replicates each (see Tab. 1).

[9] = biological target: T3, soluble recombinant IL13Rα2 ectodomain; test: SPR, Biacore X100, two-state reaction model
Experimental: as §3

[10] = biological target: T3, soluble recombinant IL13Rα2 ectodomain; test: SPR, Biacore X100, 1:1 binding model
Experimental: Data obtained by surface plasmon resonance were fitted with a “1:1 binding” model using the Biacore X100 Evaluation Software (V2.0.1). The following parameters were calculated from this model: association rate (kₐ), dissociation rate (kd) and the dissociation constant at equilibrium (KD).

[11] = biological target: T1, IL13Rα2 on cells (recombinant …); test: flow cytometry cellular binding assay on recombinant K562-IL13Rα2 cells, two-step immunostaining (anti-His-tag-PE), absolute MFI against TM concentration, four-parameter fit
Experimental: as §1
(§4) The data for the cellular binding of IL13-based TMs on the IL13Rα2-expressing AML cell line and U251-MG cells were fitted using a four-parameter model with a variable slope for sigmoidal curves.

[12] = biological target: T1, IL13Rα2 on cells (recombinant …); test: flow cytometry cellular binding assay on U251-MG cells, two-step immunostaining (anti-His-tag-PE), absolute MFI against TM concentration, four-parameter fit
Experimental: as §1, §4

[13] = biological target: T2, IL13Rα1 on recombinant K562-IL13Rα1 …; test: flow cytometry cellular binding assay on recombinant K562-IL13Rα1 cells, two-step immunostaining (anti-His-tag-PE), absolute MFI against TM concentration
Experimental: as §1

EC50 (M), mean, lysis of U251-MG cells by UniCAR T cells [1]: 2.8e-11 M
binding result [2]: no binding (tested: 1x10^-6 M)
EC50 [3]: 1.68 nM
koff [4]: 0.0024 s⁻¹
EC50 of lysis of K562-IL13Rα2 cells by switchable CAR T cells [5]: 0.0068 nM
EC50 of lysis of PC3 cells by switchable CAR T cells [5]: 0.048 nM
EC50 [6]: 1 nM
kon [7]: 871000 M⁻¹ s⁻¹
EC50 [8]: 2.5 nM
Kd [9]: 1.39 nM
B1: TM-mu33A1-scFv (scFv)
scFv: EFQVQLQQPGAELVKPGASVKLSCKASGYTFTSHWIHWVKERPGRGLEWIGRIEPNSGGTLYNEKFKTKATLTVDKPSSTAYMQINSLTSEDFAVYYCARWREFDFFDYWGQGTTLTVSSGGGGSGGGGSGGGGSDIVLTQSPATLSVTPGDSVSLSCRASQSISNNLHWYQQKSHESPRLLIKYASQSISGIPSRFSGSGSGTDFTLSISSVETEDFGMYFCQQSNRWPYTFGGGTKLEIKAAAKPLPEVTDEYARGGPGGGGSHHHHHHHH
notes: also called TM based on the parental murine clone 33A1; mu33A1-based TM

Kd [10]: 30 nM
koff [10]: 0.00049 s⁻¹
kon [10]: 26000 M⁻¹ s⁻¹
EC50 [11]: 26 nM
B2: TM-IL13-E11Y-G30Y (ligand, not shown: small tags and cut ends)
chain (part 1 of 2): GPVPPSTALRYLIEELVNITQNQKAPLCNYSMVWSINLTAGMYCAALESLINVSGCSAIEKTQRMLSGFCPHKVSAGQFSSLHVRDTKIEVAQFVKDLLLHLKKLFREGRFN
chain (part 2 of 2): KPLPEVTDEYHHHHHHHH

Kd [10]: 21 nM
koff [10]: 0.00073 s⁻¹
kon [10]: 35000 M⁻¹ s⁻¹
EC50 [11]: 14.1 nM
EC50 [12]: 1.08 nM
binding result [13]: no binding (tested: about 5x10^-6 M)
B3: TM-IL13-E11Y-M32A (ligand, not shown: small tags and cut ends)
chain (part 1 of 2): B2 chain (part 1 of 2) with Y30G, M32A
chain (part 2 of 2): KPLPEVTDEYHHHHHHHH
